{
  "source": "paper doi:10.1101/2025.02.12.637862",
  "molecular_target": "biotinylated recombinant SARS-CoV-2 RBD (SARS-CoV-2) (UniProt P0DTC2)",
  "experiment": "BLI",
  "data": [
    {"substance": "soluble N. vison ACE2 (domain or fragment)", "values": [
      {"measurement": "Kd", "result": 1.5, "unit": "µM"}
    ]}
  ]
}
